These results are taken from the supplement of paper PMC9112550, “Optimization of the antimicrobial peptide Bac7 by deep mutational scanning” (BMC Biology, 2022).
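Also: peptides expressed intracellularly from a pBAD plasmid library in pooled LB shake-flask culture, induced with 0.3% L-arabinose, DNA abundance read by NGS, three biological replicates, DESeq2 with apeglm shrinkage.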

This data set relates to Escherichia coli TOP10. The data set is described as follows: shrunken log2 fold change of peptide-encoding DNA abundance (4.5 h post-induction vs induction); higher = less antimicrobial activity (less host growth inhibition). The settings on record: time post-induction: 4.5 h; library: site-saturation at positions 5, 18, 19, 20.
For RRIRVRPPRLPRPRPRPQWDPRP, the “shrunken log2 fold change” value was -0.0347.
Under RRIRARPPRLPRPRPRPVGAPRP stands 0.731; under RRIRERPPRLPRPRPRPLFAPRP, -0.0197.
RRIRNRPPRLPRPRPRPHLQPRP: the “shrunken log2 fold change” value was -0.198.
Under RRIRHRPPRLPRPRPRPKYMPRP stands -0.746.
Under RRIRWRPPRLPRPRPRPREKPRP stands 1.16.
Under RRIRFRPPRLPRPRPRPMRDPRP stands 0.109; under RRIRARPPRLPRPRPRPSKLPRP, -0.118.
Consider RRIRMRPPRLPRPRPRPWVPPRP, for which the “shrunken log2 fold change” value is -0.0184.
Under RRIRIRPPRLPRPRPRPQYHPRP stands -0.436; under RRIRYRPPRLPRPRPRPTVWPRP, 0.385; under RRIRCRPPRLPRPRPRPKTYPRP, -0.48.
Under RRIRKRPPRLPRPRPRPCQMPRP stands -0.0362; under RRIRVRPPRLPRPRPRPLGYPRP, -0.0838; under RRIRWRPPRLPRPRPRPCKGPRP, -0.186.
Under RRIRDRPPRLPRPRPRPFNQPRP stands -0.733.
RRIRTRPPRLPRPRPRPDCLPRP: the “shrunken log2 fold change” value is -0.0333.
Under RRIRIRPPRLPRPRPRPNQCPRP stands -0.465; under RRIRYRPPRLPRPRPRPDFWPRP, 0.125.
Under RRIRMRPPRLPRPRPRPEAWPRP stands 2.15.
Under RRIRKRPPRLPRPRPRPTSHPRP stands 0.37.
On to RRIRMRPPRLPRPRPRPFPNPRP, for which the “shrunken log2 fold change” value is -0.288.
Under RRIRFRPPRLPRPRPRPLLIPRP stands -0.385; under RRIRLRPPRLPRPRPRPNTTPRP, -0.463; under RRIRARPPRLPRPRPRPKFSPRP, 0.173.
Under RRIRARPPRLPRPRPRPLHTPRP stands 0.0174; under RRIRPRPPRLPRPRPRPDHKPRP, -0.334.
Under RRIRMRPPRLPRPRPRPRGMPRP stands 0.861.
With RRIRGRPPRLPRPRPRPENYPRP, the “shrunken log2 fold change” value was -0.144.
Under RRIRDRPPRLPRPRPRPVPRPRP stands 0.186.
Under RRIRFRPPRLPRPRPRPRGQPRP stands 0.415; under RRIRWRPPRLPRPRPRPTADPRP, 1.51; under RRIRYRPPRLPRPRPRPEVHPRP, -0.187.
Under RRIRERPPRLPRPRPRPAWSPRP stands 0.233; under RRIRQRPPRLPRPRPRPDFFPRP, 0.00508.
As to RRIRDRPPRLPRPRPRPDTWPRP, the “shrunken log2 fold change” value came out at 0.335.
Under RRIRLRPPRLPRPRPRPMSEPRP stands -0.0383.
Under RRIRTRPPRLPRPRPRPDYPPRP stands 0.0242.
Under RRIRIRPPRLPRPRPRPWKHPRP stands -0.0111; under RRIRNRPPRLPRPRPRPTKFPRP, -0.607; under RRIRDRPPRLPRPRPRPEYHPRP, -0.000207.
On to RRIRGRPPRLPRPRPRPKTYPRP, for which the “shrunken log2 fold change” value came out at 0.23.
Under RRIRARPPRLPRPRPRPHSGPRP stands -0.0576.
Under RRIRSRPPRLPRPRPRPPHIPRP stands -0.0943; under RRIRLRPPRLPRPRPRPICTPRP, -0.243; under RRIRARPPRLPRPRPRPDVGPRP, 0.0285.
Under RRIRFRPPRLPRPRPRPAFHPRP stands -0.228; under RRIRFRPPRLPRPRPRPQYDPRP, -0.75.
As to RRIRYRPPRLPRPRPRPYCEPRP, the “shrunken log2 fold change” value was -0.0996.
Under RRIRVRPPRLPRPRPRPYDAPRP stands -0.294; under RRIRQRPPRLPRPRPRPRHWPRP, 0.218.
Consider RRIRHRPPRLPRPRPRPYQYPRP, for which the “shrunken log2 fold change” value was -0.00963.
Under RRIRNRPPRLPRPRPRPNKQPRP stands -0.0266.
Under RRIRGRPPRLPRPRPRPFHYPRP stands -0.383.
For RRIRRRPPRLPRPRPRPVAVPRP, the “shrunken log2 fold change” value turned out to be 0.348.
Under RRIRIRPPRLPRPRPRPQPGPRP stands 0.116.
Under RRIRIRPPRLPRPRPRPSMLPRP stands -0.422.
In the case of RRIRRRPPRLPRPRPRPHNWPRP, the “shrunken log2 fold change” value was -0.131.
As for RRIRYRPPRLPRPRPRPQYLPRP, the “shrunken log2 fold change” value was -3.15.
Under RRIRLRPPRLPRPRPRPGPWPRP stands 0.325.
Turning to RRIRSRPPRLPRPRPRPRSVPRP, the “shrunken log2 fold change” value was 0.0603.
Under RRIRERPPRLPRPRPRPQLGPRP stands 0.329.
On to RRIRVRPPRLPRPRPRPWMWPRP, for which the “shrunken log2 fold change” value is 0.091.
Under RRIRCRPPRLPRPRPRPTDAPRP stands 0.215.
RRIRFRPPRLPRPRPRPGTHPRP: the “shrunken log2 fold change” value is 1.26.
Under RRIRIRPPRLPRPRPRPTNEPRP stands -0.4.
Under RRIRFRPPRLPRPRPRPSLPPRP stands 0.0593; under RRIRHRPPRLPRPRPRPPKGPRP, 0.113; under RRIRPRPPRLPRPRPRPYEAPRP, -0.282.
Under RRIRCRPPRLPRPRPRPCGIPRP stands 0.153.
Turning to RRIRYRPPRLPRPRPRPMMDPRP, the “shrunken log2 fold change” value was -0.103.
In the case of RRIRFRPPRLPRPRPRPTHFPRP, the “shrunken log2 fold change” value was -0.227.
Under RRIRHRPPRLPRPRPRPTGFPRP stands 0.0428.
Consider RRIRFRPPRLPRPRPRPVNGPRP, for which the “shrunken log2 fold change” value is -0.746.
For the sequence RRIRFRPPRLPRPRPRPTCQPRP, the “shrunken log2 fold change” value is -0.0887.
Under RRIRARPPRLPRPRPRPFAAPRP stands 0.644; under RRIRMRPPRLPRPRPRPCYNPRP, -0.247; under RRIRMRPPRLPRPRPRPASEPRP, 0.145.
Under RRIRTRPPRLPRPRPRPAEVPRP stands -0.108; under RRIRGRPPRLPRPRPRPRMHPRP, 0.997.
Under RRIRIRPPRLPRPRPRPHPNPRP stands -0.404; under RRIRIRPPRLPRPRPRPYSLPRP, -0.607; under RRIRTRPPRLPRPRPRPVLTPRP, 1.21.
As for RRIRMRPPRLPRPRPRPKHRPRP, the “shrunken log2 fold change” value is 0.229.
RRIRKRPPRLPRPRPRPLFVPRP: the “shrunken log2 fold change” value is 0.153.
For RRIRNRPPRLPRPRPRPLSVPRP, the “shrunken log2 fold change” value is -0.21.
Under RRIRRRPPRLPRPRPRPKIGPRP stands 0.396.
Under RRIRMRPPRLPRPRPRPPRRPRP stands 1.47; under RRIRMRPPRLPRPRPRPRWIPRP, 0.00451.
Under RRIRLRPPRLPRPRPRPLVMPRP stands -0.0627.
For RRIRSRPPRLPRPRPRPLKCPRP, the “shrunken log2 fold change” value is -0.0843.
Under RRIRPRPPRLPRPRPRPEMFPRP stands -0.112; under RRIRKRPPRLPRPRPRPYCDPRP, 0.00748; under RRIRCRPPRLPRPRPRPNNRPRP, -0.738.
Under RRIRVRPPRLPRPRPRPVAQPRP stands 0.247; under RRIRGRPPRLPRPRPRPEMSPRP, 0.25; under RRIRPRPPRLPRPRPRPLDPPRP, 0.201.
For the sequence RRIRQRPPRLPRPRPRPHDWPRP, the “shrunken log2 fold change” value is -0.372.
Under RRIRQRPPRLPRPRPRPCEPPRP stands -0.0332.
Under RRIRYRPPRLPRPRPRPDMMPRP stands -0.417.
Under RRIRLRPPRLPRPRPRPRWMPRP stands 0.162; under RRIRSRPPRLPRPRPRPDPEPRP, 0.183.
As for RRIRYRPPRLPRPRPRPNCGPRP, the “shrunken log2 fold change” value was -0.00237.
Regarding RRIRHRPPRLPRPRPRPYWPPRP, the “shrunken log2 fold change” value was -0.306.
Under RRIRMRPPRLPRPRPRPSMLPRP stands 0.0158; under RRIRQRPPRLPRPRPRPRMMPRP, -0.161; under RRIRRRPPRLPRPRPRPSLWPRP, 0.293.
Under RRIRCRPPRLPRPRPRPFCYPRP stands -0.733.
Under RRIRMRPPRLPRPRPRPSEGPRP stands -0.00192.
For the sequence RRIRFRPPRLPRPRPRPETMPRP, the “shrunken log2 fold change” value came out at 0.0761.
Under RRIRIRPPRLPRPRPRPWRCPRP stands -0.107; under RRIRWRPPRLPRPRPRPFAYPRP, -0.304.
Under RRIRRRPPRLPRPRPRPMLMPRP stands 0.122; under RRIRRRPPRLPRPRPRPNWFPRP, -0.0681.
Under RRIRYRPPRLPRPRPRPPLYPRP stands 0.755.
In the case of RRIRYRPPRLPRPRPRPKWSPRP, the “shrunken log2 fold change” value is -0.0252.
Under RRIRARPPRLPRPRPRPPAPPRP stands 1.19.
Take RRIRNRPPRLPRPRPRPWWNPRP: the “shrunken log2 fold change” value was -0.141.
For RRIRMRPPRLPRPRPRPFIPPRP, the “shrunken log2 fold change” value was -0.26.
Under RRIRCRPPRLPRPRPRPEARPRP stands 0.193.
RRIRERPPRLPRPRPRPTINPRP: the “shrunken log2 fold change” value is -0.399.
For the sequence RRIRLRPPRLPRPRPRPDAKPRP, the “shrunken log2 fold change” value came out at 0.0577.
Under RRIRCRPPRLPRPRPRPYARPRP stands -0.746.
Under RRIRNRPPRLPRPRPRPFNCPRP stands -0.112; under RRIRCRPPRLPRPRPRPVIIPRP, -1.28.
